This note sets out measurements from patent publication US20100298225A1, “PEPTIDE GAP JUNCTION MODULATORS” (priority 2007, published 2010).

“Also recorded” adds a separate entry of the source.

Test [1] addresses T1, Cx43-expressing N2a cells (Rattus norvegicus, UniProt P08050).
T1 construct: expressed in transfected cells; host or cells: N2a (neuroblastoma) cells
The test can be described thus: Dual patch clamp: octanol-induced uncoupling, junctional conductance between cell pairs. Format: cell-based. The following applies: for Effect on octanol-induced uncoupling / Ability to re-open gap junctions closed by the uncoupler (revert uncoupled cells to coupled): 0.1 mM peptide in internal pipette solution, octanol superfusion; for Effect on octanol-induced uncoupling: Vj 60 mV; for Average junctional conductance (Gj) as a function of time after onset of octanol: 0.1 mM peptide in pipette, Gj relative to value before octanol, N=7 pairs; for Cell pairs that remained coupled / uncoupled following onset of octanol superfusion: seven cell pairs, peptide in pipette, uncoupling = zero junctional current at 60-mV pulse. The method, then:
Experiments were conducted on N2a (Neuroblastoma) cells. Cx43 was expressed either in a lac-switch stable system (induced by 0.1-1.0 mM of IPTG (Zhong et al., “LacSwitch II Regulation of Connexin43 cDNA Expression Enables Gap-junction Single-channel Analysis,” Biotechniques 34(5):1034-1034, 1041-1044, 1046 (2003), which is hereby incorporated by reference in its entirety)) or transiently using an IRES plasmid coding for eGFP (Seki et al., “Modifications in the Biophysical Properties of Connexin43 Channels by a Peptide of the Cytoplasmic Loop Region,” Circ. Res. 95(4):e22-e28 (2004); Seki et al., “Loss of Electrical Communication, but Not Plaque Formation, After Mutations in the Cytoplasmic Loop of Connexin43,” Heart Rhythm. 1(2):227-233 (2004), which are hereby incorporated by reference in their entirety). M257 (a mutant of Cx43 truncated at amino acid 257 (Morley et al., “Intramolecular Interactions Mediate pH Regulation of Connexin43 Channels,” Biophys. J. 70(3):1294-1302 (1996), which is hereby incorporated by reference in its entirety)) was transiently expressed in N2a cells also using an eGFP-containing IRES plasmid. Cells were placed on the stage of an inverted microscope equipped for epifluorescence (Nikon Diaphoto200, Filter: 520 to 560 nm). Junctional current (I) was recorded from eGFP-positive cell pairs in a dual-whole-cell voltage clamp configuration (holding potentials: −40 mV; transjuctional voltage, Vj, +[…]; step duration, 10-30 seconds). Patch pipettes were filled with a cesium-containing solution (Seki et al., “Modifications in the Biophysical Properties of Connexin43 Channels by a Peptide of the Cytoplasmic Loop Region,” Circ. Res. 95(4):e22-e28 (2004); Seki et al., “Loss of Electrical Communication, but Not Plaque Formation, After Mutations in the Cytoplasmic Loop of Connexin43,” Heart Rhythm. 1(2):227-233 (2004), which are hereby incorporated by reference in their entirety). For the low pH experiments, HEPES was replaced by MES (10 mM). Pipette resistance was 4.0-6.0MΩ. Synthetic peptides were diluted in the pipette solution to a final concentration of 0.1 mM. During recording, cells were kept at room temperature in a cesium-containing solution (Seki et al., “Modifications in the Biophysical Properties of Connexin43 Channels by a Peptide of the Cytoplasmic Loop Region,” Circ. Res. 95(4):e22-e28 (2004); Seki et al., “Loss of Electrical Communication, but Not Plaque Formation, After Mutations in the Cytoplasmic Loop of Connexin43,” Heart Rhythm. 1(2):227-233 (2004), which are hereby incorporated by reference in their entirety). For some experiments, octanol (2.0 mM) was superfused during recording. Data acquisition and recording, and criteria for single channel detection were as reported in Seki et al., “Modifications in the Biophysical Properties of Connexin43 Channels by a Peptide of the Cytoplasmic Loop Region,” Circ. Res. 95(4):e22-e28 (2004) and Seki et al., “Loss of Electrical Communication, but Not Plaque Formation, After Mutations in the Cytoplasmic Loop of Connexin43,” Heart Rhythm. 1(2):227-233 (2004), which are hereby incorporated by reference in their entirety.
Compounds were tested for their ability to interfere with octanol-induced uncoupling. Compounds are tested for their ability to interfere with acidification induces uncoupling.
Experiments were modeled after those described in Shibayama et al (2006). Junctional conductance between Cx43-expressing N2a cell pairs was assessed using conventional dual patch clamp. Peptides were diluted in the patch pipette solution and the cells will be exposed either to octanol or to a low intracellular pH. Control experiments were carried out in the absence of the compound. The results are shown in FIGS. 3A-E, which are graphs of the time course of octanol-induced changes in coupling recorded from Cx43-expressing N2a cells. FIGS. 3A-E relate to peptides 2517, 2518, 2529, 2520 and 2624 respectively. […]
A general note: In patch-clamp work, channel activity is measured electrically.

Test [2] has as its target T2, carboxyl terminal domain (CT) of Cx43 (Rattus norvegicus, UniProt P08050).
T2 construct: GST (N, cleaved yes); made in house; host or cells: E. coli BL-21
The test can be described thus: Peptide binding to Cx43CT determined using surface plasmon resonance (SPR). The following applies: immobilised recombinant Cx43CT. The method, then: 277(39):36706-36714 (2002), which is hereby incorporated by reference in its entirety. Briefly, cDNA derived from rat Cx43 was inserted into pGEX-6P-2 (Amersham) and expressed in E. coli (BL-21). The resultant GST-fusion protein was cleaved from the GST PreScission Protease® (Amersham Biosciences). The recombinant product after cleavage contained the sequence 255-382 of rCx43 preceded by four additional amino acids (GPLG). Protein concentration was measured using the Bio-Rad DC Protein Assay. Protein purity was assessed by SDS-PAGE.
Recombinant Cx43CT was covalently bound to a carboxylmethyl dextran matrix (Salamon et al., “Surface Plasmon Resonance Spectroscopy as a Tool for Investigating the Biochemical and Biophysical Properties of Membrane Protein Systems. II: Applications to Biological Systems,” Biochim. Biophys. Acta 1331(2):131-152 (1997), which is hereby incorporated by reference in its entirety). Specific peptides were presented and, when feasible, dissociation constants (KD) were calculated from the time course of binding and unbinding of the ligand, using a 1:1 (Langmuir) association and dissociation kinetic model (Biacore software package). In both phases (association and dissociation), the first 5-8 seconds of recording were not included in the fit, to avoid artifacts resulting from peptide distribution within the flow cells (Lang et al., “Surface Plasmon Resonance as a Method to Study the Kinetics and Amplitude of Protein-protein Binding,” in PRACTICAL METHODS IN CARDIOVASCULAR RESEARCH 936-947 (Stefan Dhein, Friedrich Wilhelm Mohr & Mario Delmar eds., 2005), which is hereby incorporated by reference in its entirety).
The peptides shown in table 2 and 3 were tested for binding to the carboxyl terminal domain (CT) of Cx43 using Surface Plasmon Resonance (“SPR”). SPR is a method that was used to identify the original RXPE sequence (Shibayama et al., “Identification of a Novel Peptide that Interferes with the Chemical Regulation of Connexin-43,” Circ. Res. 98:1365-72 (2006)). The amplitude of the response is also a function of the mass of the ligate, and the normalized data according to the individual peptide Mw's are shown in table 3.

T2 sequence (P08050 255-382): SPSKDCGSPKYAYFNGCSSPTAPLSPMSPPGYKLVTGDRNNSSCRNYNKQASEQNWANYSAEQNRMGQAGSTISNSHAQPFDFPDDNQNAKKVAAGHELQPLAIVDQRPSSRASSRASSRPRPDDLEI
T1 sequence (P08050 whole entry): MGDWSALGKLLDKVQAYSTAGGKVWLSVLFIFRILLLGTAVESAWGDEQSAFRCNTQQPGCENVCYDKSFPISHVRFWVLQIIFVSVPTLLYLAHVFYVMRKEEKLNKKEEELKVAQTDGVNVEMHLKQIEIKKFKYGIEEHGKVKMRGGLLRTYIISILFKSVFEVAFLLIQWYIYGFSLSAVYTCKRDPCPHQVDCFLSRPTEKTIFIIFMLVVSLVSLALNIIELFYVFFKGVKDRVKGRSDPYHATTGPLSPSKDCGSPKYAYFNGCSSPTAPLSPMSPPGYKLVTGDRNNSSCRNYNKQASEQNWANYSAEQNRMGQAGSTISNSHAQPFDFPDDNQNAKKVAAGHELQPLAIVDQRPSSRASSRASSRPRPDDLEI

With “Ac-Arg-Arg-Asn-Tyr-Arg-Arg-Asn-Tyr-NH2 (Ac-RRNYRRNY-NH2) [Compound 2497]”, the “Effect on octanol-induced uncoupling” value in test [1] is listed as “prevented octanol-induced uncoupling; also recorded: preventing the uncoupling of GJ”. Also, the SPR respons in test [2] (peptide 25 uM) was found to be 30.2 arbitrary units; in test [2] (peptide 100 uM), 84.2 arbitrary units; in test [2] (peptide 250 uM) it was 201.5 arbitrary units; in test [2] (peptide 500 uM), 327.5 arbitrary units; in test [2] (peptide 1 mM), 565.2 arbitrary units.

As for “Ac-Arg-Arg-Asn-Tyr-Gly-Gly-Gly-Ser-Ala-Val-Pro-Phe-Tyr-Ser-His-Ser-Arg-Arg-Asn-Tyr-Gly-Gly-Gly-Ser-Ala-Val-Pro-Phe-Tyr-Ser-His-Ser-Arg-Arg-Asn-Tyr-NH2 (Ac-RRNYGGGSAVPFYSHSRRNYGGGSAVPFYSHSRRNY-NH2) [Compound 2371]”, in test [1], the “Ability to re-open gap junctions closed by the uncoupler (revert uncoupled cells to coupled)” value is given as “able to revert uncoupled cells to couple cells; also recorded: re-open gap junctions that were initially closed by the uncoupler”; the “Effect on octanol-induced uncoupling” value was “prevented octanol-induced uncoupling”; the “Average junctional conductance (Gj) as a function of time after onset of octanol” value was “decreased at first and then increased”; the “Cell pairs that remained coupled / uncoupled following onset of octanol superfusion” value was “uncoupled and then recoupled”. For the same substance, in test [1] (junctional current traces of a cell pair, peptide in internal pipette solution), the “Decrease in Gj three minutes after onset of octanol” value was “no or only a minor decrease in Gj”.

For “Ac-Arg-Arg-Asn-Tyr-Gly-Gly-Gly-Ser-Ala-Val-Pro-Phe-Tyr-Ser-His-Ser-Arg-Arg-Asn-Tyr-NH2 (Ac-RRNYGGGSAVPFYSHSRRNY-NH2) [Compound 2366]”, in test [1], the “Ability to re-open gap junctions closed by the uncoupler (revert uncoupled cells to coupled)” value is on record as “able to revert uncoupled cells to couple cells; also recorded: re-open gap junctions that were initially closed by the uncoupler”; the “Effect on octanol-induced uncoupling” value is reported as “prevented octanol-induced uncoupling”; the “Average junctional conductance (Gj) as a function of time after onset of octanol” value is “decreased at first and then increased”; the “Cell pairs that remained coupled / uncoupled following onset of octanol superfusion” value was “uncoupled and then recoupled”.
